Laboratory results reported in patent US20210275657A1 (BIONTECH US, published 2021).

How the values were obtained:
HLA-A02:01 [1] = molecular target: T1, HLA-A02:01 (human); assay: peptide-HLA affinity, Example 9
T1 construct: Stability assay: E. coli-expressed biotinylated heavy chain with 125I-labelled b2m

HLA-A02:01 [2] = molecular target: T1, HLA-A02:01; assay: peptide-HLA stability, Example 9
HLA-A02:01 [3] = molecular target: T1, HLA-A02:01; assay: competition vs radiolabeled peptide on purified HLA; measured IC50
HLA-A02:01 [4] = molecular target: T1, HLA-A02:01; assay: pMHC-I dissociation, 125I-b2m, 37C; experiment 2
HLA-A02:01 [5] = molecular target: T1, HLA-A02:01; assay: pMHC-I dissociation, 125I-b2m, 37C; average of 2
HLA-A02:01 [6] = molecular target: T1, HLA-A02:01; assay: competition vs radiolabeled peptide on purified HLA; IC50 corrected for peptide concentration
HLA-A02:01 [7] = molecular target: T1, HLA-A02:01; assay: pMHC-I dissociation, 125I-b2m, 37C; experiment 1
HLA-B07:02 [8] = molecular target: T2, HLA-B07:02 (human); assay: competition vs radiolabeled peptide on purified HLA; measured IC50
T2 construct: Stability assay: E. coli-expressed biotinylated heavy chain with 125I-labelled b2m; MS: BAP-tagged HLA in HEK293T cells; Treated as one molecule

HLA-B07:02 [9] = molecular target: T2, HLA-B07:02; assay: pMHC-I dissociation, 125I-b2m, 37C; experiment 2
HLA-B07:02 [10] = molecular target: T2, HLA-B07:02; assay: pMHC-I dissociation, 125I-b2m, 37C; average of 2
HLA-B07:02 [11] = molecular target: T2, HLA-B07:02; assay: competition vs radiolabeled peptide on purified HLA; IC50 corrected for peptide concentration
HLA-B07:02 [12] = molecular target: T2, HLA-B07:02; assay: peptide-HLA affinity, Example 9
HLA-B07:02 [13] = molecular target: T2, HLA-B07:02; assay: pMHC-I dissociation, 125I-b2m, 37C; experiment 1
HLA-B07:02 [14] = molecular target: T2, HLA-B07:02; assay: peptide-HLA stability, Example 9
HLA-B08:01 [15] = molecular target: T3, HLA-B08:01 (human); assay: competition vs radiolabeled peptide on purified HLA; measured IC50
T3 construct: Stability assay: E. coli-expressed biotinylated heavy chain with 125I-labelled b2m; MS: BAP-tagged HLA in HEK293T cells; Treated as one molecule

HLA-B08:01 [16] = molecular target: T3, HLA-B08:01; assay: pMHC-I dissociation, 125I-b2m, 37C; experiment 2
HLA-B08:01 [17] = molecular target: T3, HLA-B08:01; assay: pMHC-I dissociation, 125I-b2m, 37C; average of 2
HLA-B08:01 [18] = molecular target: T3, HLA-B08:01; assay: pMHC-I dissociation, 125I-b2m, 37C; experiment 1
HLA-B08:01 [19] = molecular target: T3, HLA-B08:01; assay: peptide-HLA stability, Example 9
HLA-A11:01 [20] = molecular target: T4, HLA-A11:01 (human); assay: peptide-HLA affinity, Example 9
T4 construct: Construct not described

HLA-A03:01 [21] = molecular target: T5, HLA-A03:01 (human); assay: peptide-HLA affinity, Example 9
T5 construct: Construct not described

HLA-A11:01 [22] = molecular target: T4, HLA-A11:01; assay: peptide-HLA stability, Example 9
HLA-A03:01 [23] = molecular target: T5, HLA-A03:01; assay: peptide-HLA stability, Example 9
HLA-A11:01 [24] = molecular target: T4, HLA-A11:01; assay: peptide-HLA affinity, Example 36
HLA-A01:01 [25] = molecular target: T6, HLA-A01:01 (human); assay: peptide-HLA affinity, Example 36
T6 construct: Construct not described

HLA-A03:01 [26] = molecular target: T5, HLA-A03:01; assay: peptide-HLA affinity, Example 36
HLA-A01:01 [27] = molecular target: T6, HLA-A01:01; assay: peptide-HLA stability, Example 36
HLA-A03:01 [28] = molecular target: T5, HLA-A03:01; assay: peptide-HLA stability, Example 36
HLA-A24:02 [29] = molecular target: T7, HLA-A24:02 (human); assay: peptide-HLA affinity, Example 36
T7 construct: Construct not described

HLA-A24:02 [30] = molecular target: T7, HLA-A24:02; assay: peptide-HLA stability, Example 36
HLA-A24:02 [31] = molecular target: T7, HLA-A24:02; assay: peptide-HLA affinity, Example 9
HLA-A24:02 [32] = molecular target: T7, HLA-A24:02; assay: peptide-HLA stability, Example 9

B1: AIQPVLWTT (peptide)
peptide: AIQPVLWTT
- Observed MHC affinity (HLA-A02:01 [1]): 8 nM
- Observed MHC stability (HLA-A02:01 [2]): 1.5 h

B2: TLQRSSLWCL (peptide)
peptide: TLQRSSLWCL
- IC50 (HLA-A02:01 [3]): 281 nM
- half-life (HLA-A02:01 [4]): 0.5 h
- half-life (HLA-A02:01 [5]): 0.5 h
- IC50 (HLA-A02:01 [6]): 118 nM
- Observed MHC affinity (HLA-A02:01 [1]): 118 nM
- half-life (HLA-A02:01 [7]): 0.5 h
- Observed MHC stability (HLA-A02:01 [2]): 0.5 h

B3: KPKRDGYMFL (peptide)
peptide: KPKRDGYMFL
- IC50 (HLA-B07:02 [8]): 115 nM
- half-life (HLA-B07:02 [9]): 3.3 h
- half-life (HLA-B07:02 [10]): 3.3 h
- IC50 (HLA-B07:02 [11]): 98.1 nM
- Observed MHC affinity (HLA-B07:02 [12]): 98 nM
- half-life (HLA-B07:02 [13]): 3.3 h
- Observed MHC stability (HLA-B07:02 [14]): 3.3 h

B4: KPKRDGYMF (peptide)
peptide: KPKRDGYMF
- IC50 (HLA-B07:02 [8]): 28.2 nM
- half-life (HLA-B07:02 [9]): 9 h
- half-life (HLA-B07:02 [10]): 8.6 h
- IC50 (HLA-B07:02 [11]): 28.2 nM
- Observed MHC affinity (HLA-B07:02 [12]): 28 nM
- half-life (HLA-B07:02 [13]): 8.3 h
- Observed MHC stability (HLA-B07:02 [14]): 8.6 h

B5: FATLQRSSL (peptide)
peptide: FATLQRSSL
- IC50 (HLA-B08:01 [15]): 27.5 nM
- IC50 (HLA-B07:02 [8]): 14 nM
- half-life (HLA-B08:01 [16]): 0 h
- half-life (HLA-B07:02 [9]): 0.6 h
- half-life (HLA-B08:01 [17]): 0 h
- half-life (HLA-B07:02 [10]): 0.7 h
- IC50 (HLA-B07:02 [11]): 14 nM
- Observed MHC affinity (HLA-B07:02 [12]): 14 nM
- half-life (HLA-B08:01 [18]): 0 h
- half-life (HLA-B07:02 [13]): 0.7 h
- Observed MHC stability (HLA-B08:01 [19]): 0 h
- Observed MHC stability (HLA-B07:02 [14]): 0.7 h

B6: MFATLQRSSL (peptide)
peptide: MFATLQRSSL
- IC50 (HLA-B07:02 [8]): 350 nM
- half-life (HLA-B08:01 [16]): 0 h
- half-life (HLA-B07:02 [9]): 0 h
- half-life (HLA-B08:01 [17]): 0 h
- half-life (HLA-B07:02 [10]): 0 h
- IC50 (HLA-B07:02 [11]): 267 nM
- half-life (HLA-B08:01 [18]): 0 h
- half-life (HLA-B07:02 [13]): 0 h
- Observed MHC stability (HLA-B08:01 [19]): 0 h
- Observed MHC stability (HLA-B07:02 [14]): 0 h

B7: GPPARVPAV (peptide)
peptide: GPPARVPAV
- IC50 (HLA-B07:02 [8]): 282 nM
- half-life (HLA-B07:02 [9]): 1.8 h
- half-life (HLA-B07:02 [10]): 1.6 h
- IC50 (HLA-B07:02 [11]): 221 nM
- Observed MHC affinity (HLA-B07:02 [12]): 221 nM
- half-life (HLA-B07:02 [13]): 1.5 h
- Observed MHC stability (HLA-B07:02 [14]): 1.6 h

B8: FLKAESKIMF (peptide)
peptide: FLKAESKIMF
- IC50 (HLA-B08:01 [15]): 90 nM
- half-life (HLA-B08:01 [16]): 0 h
- half-life (HLA-B08:01 [17]): 0 h
- half-life (HLA-B08:01 [18]): 0 h
- Observed MHC stability (HLA-B08:01 [19]): 0 h

B9: ESKIMFATL (peptide)
peptide: ESKIMFATL
- IC50 (HLA-B08:01 [15]): 23.3 nM
- half-life (HLA-B08:01 [16]): 1.6 h
- half-life (HLA-B08:01 [17]): 1.3 h
- half-life (HLA-B08:01 [18]): 1 h
- Observed MHC stability (HLA-B08:01 [19]): 1.3 h

B10: FLKAESKIM (peptide)
peptide: FLKAESKIM
- half-life (HLA-B08:01 [16]): 1.5 h
- half-life (HLA-B08:01 [17]): 1.2 h
- half-life (HLA-B08:01 [18]): 0.8 h
- Observed MHC stability (HLA-B08:01 [19]): 1.2 h

B11: LHFCRSSIM (peptide)
peptide: LHFCRSSIM
- IC50 (HLA-B08:01 [15]): 167 nM
- half-life (HLA-B08:01 [16]): 0 h
- half-life (HLA-B08:01 [17]): 0 h
- half-life (HLA-B08:01 [18]): 0 h
- Observed MHC stability (HLA-B08:01 [19]): 0 h

B12: IMKPKRDGYM (peptide)
peptide: IMKPKRDGYM
- IC50 (HLA-B08:01 [15]): 40.2 nM
- half-life (HLA-B08:01 [16]): 0.4 h
- half-life (HLA-B08:01 [17]): 0.4 h
- half-life (HLA-B08:01 [18]): 0.4 h
- Observed MHC stability (HLA-B08:01 [19]): 0.4 h

B13: KIMFATLQR (peptide)
peptide: KIMFATLQR
- Observed MHC affinity (HLA-A11:01 [20]): 23 nM
- Observed MHC affinity (HLA-A03:01 [21]): 3 nM
- Observed MHC stability (HLA-A11:01 [22]): 8.9 h
- Observed MHC stability (HLA-A03:01 [23]): 5.6 h

B14: VLWTTPPLQH (peptide)
peptide: VLWTTPPLQH
- Observed MHC affinity (HLA-A11:01 [20]): 4540 nM
- Observed MHC affinity (HLA-A03:01 [21]): 16 nM
- Observed MHC stability (HLA-A11:01 [22]): 0 h
- Observed MHC stability (HLA-A03:01 [23]): 0.3 h

B15: YMFLKAESK (peptide)
peptide: YMFLKAESK
- Observed MHC affinity (HLA-A11:01 [20]): 1730 nM
- Observed MHC affinity (HLA-A03:01 [21]): 80 nM
- Observed MHC stability (HLA-A11:01 [22]): 0 h
- Observed MHC stability (HLA-A03:01 [23]): 0.3 h

B16: YMANGSLLNY (peptide)
peptide: YMANGSLLNY
notes: also called BTK C481S mutant peptide
- Affinity (HLA-A11:01 [24]): 974 nM
- Affinity (HLA-A01:01 [25]): 13.2 nM
- Affinity (HLA-A03:01 [26]): 95.9 nM
- Stability (1/2 hr) (HLA-A01:01 [27]): 0.866 h
- Stability (1/2 hr) (HLA-A03:01 [28]): 0.279 h

B17: MANGSLLNY (peptide)
peptide: MANGSLLNY
notes: as for B16
- Affinity (HLA-A11:01 [24]): 536 nM
- Affinity (HLA-A01:01 [25]): 439 nM
- Affinity (HLA-A03:01 [26]): 35.6 nM
- Stability (1/2 hr) (HLA-A01:01 [27]): 0.216 h
- Stability (1/2 hr) (HLA-A03:01 [28]): 0.238 h

B18: EYMANGSLL (peptide)
peptide: EYMANGSLL
notes: as for B16
- Affinity (HLA-A24:02 [29]): 4.96 nM
- Stability (1/2 hr) (HLA-A24:02 [30]): 5.72 h

B19: MFLKAESKI (peptide)
peptide: MFLKAESKI
- Observed MHC affinity (HLA-A24:02 [31]): 332 nM
- Observed MHC stability (HLA-A24:02 [32]): 0.2 h

B20: EPHLALQPL (peptide)
peptide: EPHLALQPL
- Observed MHC stability (HLA-B08:01 [19]): 0 h
- Observed MHC stability (HLA-B07:02 [14]): 7.2 h

B21: QPVLWTTPPL (peptide)
peptide: QPVLWTTPPL
- Observed MHC affinity (HLA-B07:02 [12]): 109 nM
- Observed MHC stability (HLA-B07:02 [14]): 1.4 h

B22: VLPEPHLAL (peptide)
peptide: VLPEPHLAL
- Observed MHC affinity (HLA-A02:01 [1]): 16 nM
- Observed MHC stability (HLA-A02:01 [2]): 1.1 h
